Legend:
Assay in all cases: IEDB peptide-MHC binding, purified MHC/competitive/radioactivity; filed as Kd, often an IC50 or EC50 that approximates it; ≥ and ≤ were set here for values at or beyond the usual limits of such assays
HLA-A*31:01 = biological target: HLA-A*31:01
HLA-A*03:01 = biological target: HLA-A*03:01
HLA-A*11:01 = biological target: HLA-A*11:01
HLA-A*33:01 = biological target: HLA-A*33:01
HLA-A*68:01 = biological target: HLA-A*68:01
[1] = source organism: Mammarenavirus juninense
[2] = source organism: Dengue virus 2 Jamaica/1409/1983
[3] = source organism: Vaccinia virus WR
[4] = source organism: SARS coronavirus Tor2
[5] = source organism: Dengue virus 1 Brazil/97-11/1997
[6] = source organism: Dengue virus 4 Philippines/H241/1956
[7] = source organism: Dengue virus 3 Martinique/1243/1999

Question: VFFTASLFLH was tested. Which Kd (HLA-A*31:01; [1]) did it give?
Answer: Its Kd is 318 nM.

Question: What about the Kd (HLA-A*03:01; [1]) of the same sequence?
Answer: The Kd was 10400 nM.

Question: What about the Kd (HLA-A*11:01; [1]) of the same sequence?
Answer: Its Kd is 10100 nM.

Question: And the Kd (HLA-A*33:01; [1])?
Answer: Its Kd is 164 nM.

Question: What about the Kd (HLA-A*68:01; [1]) of the same sequence?
Answer: The Kd was at least 22700 nM.

Question: ESALNDTWK was tested. Which Kd (HLA-A*68:01; [2]) did it give?
Answer: The Kd was 90.5 nM.

Question: Which Kd (HLA-A*31:01; [3]) does the source give for LIIYYQLAGY here?
Answer: The Kd was at least 25700 nM.

Question: What about the Kd (HLA-A*03:01; [3]) of the same sequence?
Answer: The Kd was 137 nM.

Question: What about the Kd (HLA-A*11:01; [3]) of the same sequence?
Answer: Its Kd is 5120 nM.

Question: What about the Kd (HLA-A*33:01; [3]) of the same sequence?
Answer: The Kd was at least 67600 nM.

Question: And the Kd (HLA-A*68:01; [3])?
Answer: The Kd was 8000 nM.

Question: Which results are given for TIANSNIIK?
Answer: Kd (HLA-A*31:01; [3]): 8980 nM; Kd (HLA-A*03:01; [3]): 655 nM; Kd (HLA-A*11:01; [3]): 36.8 nM; Kd (HLA-A*33:01; [3]): 10900 nM; Kd (HLA-A*68:01; [3]): 73.1 nM

Question: Which results are given for FTTSLSLHK?
Answer: Kd (HLA-A*31:01; [4]): 2860 nM; Kd (HLA-A*03:01; [4]): 1350 nM; Kd (HLA-A*11:01; [4]): 181 nM; Kd (HLA-A*33:01; [4]): 1130 nM; Kd (HLA-A*68:01; [4]): 271 nM

Question: ALSEAREHLK was tested. Which Kd (HLA-A*31:01; [4]) did it give?
Answer: The Kd was 5320 nM.

Question: What about the Kd (HLA-A*03:01; [4]) of the same sequence?
Answer: Its Kd is 80.6 nM.

Question: And the Kd (HLA-A*11:01; [4])?
Answer: The Kd was 141 nM.

Question: And the Kd (HLA-A*33:01; [4])?
Answer: Its Kd is at least 70000 nM.

Question: And the Kd (HLA-A*68:01; [4])?
Answer: The Kd was 2960 nM.

Question: Which results are given for KLSYGIATVR?
Answer: Kd (HLA-A*31:01; [4]): 278 nM; Kd (HLA-A*03:01; [4]): 879 nM; Kd (HLA-A*11:01; [4]): 1420 nM; Kd (HLA-A*33:01; [4]): 15300 nM; Kd (HLA-A*68:01; [4]): 89 nM

Question: QMAGVEVRY was tested. Which Kd (HLA-A*31:01; [3]) did it give?
Answer: The Kd was at least 31200 nM.

Question: And the Kd (HLA-A*03:01; [3])?
Answer: The Kd was 49.6 nM.

Question: And the Kd (HLA-A*11:01; [3])?
Answer: The Kd was 2270 nM.

Question: And the Kd (HLA-A*33:01; [3])?
Answer: The Kd was at least 20200 nM.

Question: What about the Kd (HLA-A*68:01; [3]) of the same sequence?
Answer: The Kd was 7430 nM.

Question: For IAEYIAGLK, which Kd (HLA-A*31:01; [3]) is on record?
Answer: The Kd was 8070 nM.

Question: What about the Kd (HLA-A*03:01; [3]) of the same sequence?
Answer: Its Kd is 63.3 nM.

Question: And the Kd (HLA-A*11:01; [3])?
Answer: The Kd was 147 nM.

Question: And the Kd (HLA-A*33:01; [3])?
Answer: The Kd was 1320 nM.

Question: And the Kd (HLA-A*68:01; [3])?
Answer: Its Kd is 1.27 nM.

Question: SIFKLTYQNK was tested. Which Kd (HLA-A*03:01; [5]) did it give?
Answer: The Kd was 15.2 nM.

Question: What about the Kd (HLA-A*11:01; [5]) of the same sequence?
Answer: The Kd was 65.9 nM.

Question: With KSQAKKPEVR as the sequence, how does the Kd (HLA-A*31:01; [3]) read?
Answer: The Kd was 299 nM.

Question: And the Kd (HLA-A*03:01; [3])?
Answer: The Kd was at least 22000 nM.

Question: What about the Kd (HLA-A*11:01; [3]) of the same sequence?
Answer: Its Kd is 10800 nM.

Question: And the Kd (HLA-A*33:01; [3])?
Answer: The Kd was at least 37200 nM.

Question: And the Kd (HLA-A*68:01; [3])?
Answer: Its Kd is at least 70200 nM.

Question: What does the source list for RQFHQKLLK?
Answer: Kd (HLA-A*31:01; [4]): 8.5 nM; Kd (HLA-A*03:01; [4]): 12.6 nM; Kd (HLA-A*11:01; [4]): 13.3 nM; Kd (HLA-A*33:01; [4]): ≥ 77700 nM; Kd (HLA-A*68:01; [4]): ≥ 39500 nM

Question: MLNIMNRRKR was tested. Which Kd (HLA-A*31:01; [5]) did it give?
Answer: Its Kd is at least 60800 nM.

Question: IFLRKLTSR was tested. Which Kd (HLA-A*31:01; [6]) did it give?
Answer: The Kd was 39 nM.

Question: What about the Kd (HLA-A*33:01; [6]) of the same sequence?
Answer: Its Kd is 108 nM.

Question: With VTVASAAQR as the sequence, how does the Kd (HLA-A*68:01; [5]) read?
Answer: Its Kd is 48.7 nM.

Question: With MISRMLINR as the sequence, how does the Kd (HLA-A*31:01; [2]) read?
Answer: The Kd was 4.37 nM.

Question: And the Kd (HLA-A*11:01; [2])?
Answer: The Kd was 258 nM.

Question: What about the Kd (HLA-A*33:01; [2]) of the same sequence?
Answer: The Kd was 9.7 nM.

Question: And the Kd (HLA-A*68:01; [2])?
Answer: The Kd was 22.7 nM.

Question: How did the Kd (HLA-A*31:01; [5]) turn out when TALAFHLTTR was run?
Answer: Its Kd is at least 39800 nM.

Question: What about the Kd (HLA-A*68:01; [5]) of the same sequence?
Answer: Its Kd is 101 nM.

Question: With TVEAGRTLR as the sequence, how does the Kd (HLA-A*68:01; source organism: Dengue virus 2 Peru/IQT2913/1996) read?
Answer: The Kd was 13 nM.

Question: Which Kd (HLA-A*03:01; [2]) does the source give for ALFLEEMLR here?
Answer: Its Kd is 304 nM.

Question: KLKPRWLDAR was tested. Which Kd (HLA-A*31:01; [2]) did it give?
Answer: Its Kd is 1.39 nM.

Question: How did the Kd (HLA-A*31:01; [6]) turn out when LMCHATFTTR was run?
Answer: The Kd was 12.7 nM.

Question: And the Kd (HLA-A*33:01; [6])?
Answer: The Kd was 97.1 nM.

Question: For LLMHLVSLY, which Kd (HLA-A*03:01; [3]) is on record?
Answer: Its Kd is 2.67 nM.

Question: What about the Kd (HLA-A*11:01; [3]) of the same sequence?
Answer: Its Kd is 7.11 nM.

Question: And the Kd (HLA-A*33:01; [3])?
Answer: The Kd was at least 52500 nM.

Question: And the Kd (HLA-A*68:01; [3])?
Answer: The Kd was 9.95 nM.

Question: For LLNRFTMTHR, which Kd (HLA-A*31:01; [7]) is on record?
Answer: Its Kd is 15.2 nM.

Question: With CVYNMMGKR as the sequence, how does the Kd (HLA-A*31:01; [6]) read?
Answer: Its Kd is 137 nM.

Question: And the Kd (HLA-A*03:01; [6])?
Answer: Its Kd is 63.4 nM.

Question: And the Kd (HLA-A*68:01; [6])?
Answer: The Kd was 117 nM.

Question: How did the Kd (HLA-A*31:01; [2]) turn out when AINVLRGFR was run?
Answer: Its Kd is 3.72 nM.

Question: How did the Kd (HLA-A*03:01; source organism: Dengue virus 1 Nauru/West Pac/1974) turn out when FFLSGRGLGK was run?
Answer: Its Kd is 12 nM.

Question: How did the Kd (HLA-A*68:01; [7]) turn out when LAILFEEVMR was run?
Answer: Its Kd is 29.7 nM.

Question: Which Kd (HLA-A*31:01; [6]) does the source give for KAIKILTGFR here?
Answer: The Kd was 7.75 nM.

Question: What does the source list for ETCVYNMMGK?
Answer: Kd (HLA-A*11:01; [2]): 1170 nM; Kd (HLA-A*68:01; [2]): 19.1 nM
